Experimental data reported in article PMC7671035.

Assays:
human CXCL11 (human) = human CXCL11 (human) (UniProt O14625); assay: ELISA
LY3041658 (human) = assay: SPR

Sequence of human CXCL11 (O14625 22-94): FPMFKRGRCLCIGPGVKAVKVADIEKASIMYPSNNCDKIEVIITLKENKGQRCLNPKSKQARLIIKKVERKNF
Sequence of human CXCL11 (human) (O14625 22-94): as above
Sequence of human CXCL9 (Q07325 23-125): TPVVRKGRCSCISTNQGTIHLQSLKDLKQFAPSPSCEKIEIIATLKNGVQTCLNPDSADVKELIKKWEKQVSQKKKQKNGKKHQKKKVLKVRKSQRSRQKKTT

Substance | fold shift in EC50 compared with the ELR+CXC chemokines (human CXCL11 (human)) [fold] | Kd (LY3041658 (human)) [nM]
LY3041658 (antibody) | 200 | –
human CXCL9 (from UniProt Q07325 23-125) (ligand) | – | 100
human CXCL11 (from UniProt O14625 22-94) (ligand) | – | 100
